The target of one assay is T1, Human IgG, Fc fragment (human).
T1 construct: domain: Fc; the ELISA plates were coated with 'antibody antigens', so whole IgG may have stood there; also called human IgG-Fc domain; IgG Fc domain species: human
The assay is described as follows: method not given.

Assay [1] deals with T2, Human IgG2 (human, UniProt P01859-1 1-326 = IgG part).
T2 construct: purified IgG of this subclass; also called HuIgG2
Briefly: SPR, VHH immobilised, IgG as analyte, 1:1 Langmuir. As for the experimental part:
(§1) Binding affinity constants of anti IgG-Fc VHH fragments were determined using surface plasmon resonance analysis (SPR) on a BiaCore 3000. For this purpose, purified VHH fragments were immobilised onto the surface of a CM5 sensor chip and subsequently incubated with different concentrations of purified IgG antibodies in HBS-EP buffer. Binding was allowed for 3 minutes at 30 μl/min followed by a dissociation step of 15 minutes at 30 μl/min. Binding curves were fitted according to a 1:1 Langmuir binding model using Biacore software.

Assay [2] concerns the target T3, Human IgG3 (human, UniProt P01860-1 1-377).
T3 construct: purified IgG of this subclass; also called HuIgG3
Briefly: SPR, VHH immobilised, IgG as analyte, 1:1 Langmuir. Here is the method:
as §1

Assay [3] addresses T4, Human IgG4 (human, UniProt P01861-1 1-327 = IgG part).
T4 construct: purified IgG of this subclass; also called HuIgG4
The assay is described as follows: SPR, VHH immobilised, IgG as analyte, 1:1 Langmuir. Here is the method: as §1
For orientation: Surface plasmon resonance follows binding to a sensor surface in real time, without labels.

In assay [4] the target is T5, Human IgG1 (human, UniProt P01857-1 1-330 = IgG part).
T5 construct: purified IgG of this subclass; also called HuIgG1
T5 sequence (P01857 other isoform, or with tags, fused parts or gaps): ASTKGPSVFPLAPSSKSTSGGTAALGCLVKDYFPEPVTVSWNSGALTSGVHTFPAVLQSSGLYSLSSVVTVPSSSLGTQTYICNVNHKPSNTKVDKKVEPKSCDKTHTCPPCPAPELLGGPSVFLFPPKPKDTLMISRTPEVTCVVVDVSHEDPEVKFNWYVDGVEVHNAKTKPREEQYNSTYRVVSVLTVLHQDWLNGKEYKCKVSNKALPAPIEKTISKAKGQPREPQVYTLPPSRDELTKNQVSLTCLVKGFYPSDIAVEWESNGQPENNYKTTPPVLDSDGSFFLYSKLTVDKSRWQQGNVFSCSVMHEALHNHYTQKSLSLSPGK
The assay is described as follows: SPR, VHH immobilised, IgG as analyte, 1:1 Langmuir. As for the experimental part: as §1

Assay [5] addresses T2, Human IgG2. Briefly: SPR, IgG-Fc-16 immobilised, IgG 50 µg/ml. Here is the method: (§2) Broad binding reactivity of VHH fragment IgG-Fc-16 was determined using surface plasmon resonance analysis (SPR) on a BiaCore 3000. For this purpose, purified VHH fragment IgG-Fc-16 was immobilised onto the surface of a CM5 sensor chip and subsequently incubated with purified IgG antibodies (50 μg/ml) from different species in HBS-EP buffer. Binding was allowed for 1 minute at 5 μl/min followed by a dissociation step of 2.5 minutes at 5 μl/min. Binding signals (Resonance Units) were compared to background signals measured with HBS-EP buffer only. For comparison, the relative reactivity of Protein A and G towards different IgG species is also given.

The target in a further assay is Mouse IgG 1 (mouse, UniProt P01868 1-324 = IgG part). The assay is described as follows: SPR, IgG-Fc-16 immobilised, IgG 50 µg/ml. As for the experimental part:
as §2

Assay [6] concerns the target T3, Human IgG3. The assay is described as follows: SPR, IgG-Fc-16 immobilised, IgG 50 µg/ml. As for the experimental part:
as §2

The target in the next assay is Rat IgG2a (rat, UniProt P20760 1-322). Briefly: SPR, IgG-Fc-16 immobilised, IgG 50 µg/ml. As for the experimental part:
as §2

Assay [7] has as its target T4, Human IgG4. The assay is described as follows: SPR, IgG-Fc-16 immobilised, IgG 50 µg/ml. As for the experimental part:
as §2

Another assay addresses Mouse IgG2a (mouse, UniProt P01863 1-330 = IgG part). The assay is described as follows: SPR, IgG-Fc-16 immobilised, IgG 50 µg/ml. Here is the method:
as §2

The target of another assay is T6, Rat IgG1a (rat, UniProt P20759 1-326).
T6 construct: label 'IgG1a' as printed
T6 sequence (P20759 whole entry): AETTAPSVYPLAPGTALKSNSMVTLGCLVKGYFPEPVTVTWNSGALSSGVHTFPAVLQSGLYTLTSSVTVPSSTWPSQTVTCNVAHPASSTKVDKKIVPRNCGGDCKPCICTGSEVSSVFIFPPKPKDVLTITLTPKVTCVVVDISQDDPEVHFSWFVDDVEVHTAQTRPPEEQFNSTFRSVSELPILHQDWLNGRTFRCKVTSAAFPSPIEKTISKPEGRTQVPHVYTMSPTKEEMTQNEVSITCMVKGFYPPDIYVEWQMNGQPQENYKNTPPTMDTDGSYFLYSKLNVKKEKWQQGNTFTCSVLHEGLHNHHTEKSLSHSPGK
Briefly: SPR, IgG-Fc-16 immobilised, IgG 50 µg/ml. As for the experimental part: as §2

The next assay addresses T7, Guinea IgG (guinea pig).
T7 construct: printed 'Guinea IgG'; also called guinea pig IgG
Briefly: SPR, IgG-Fc-16 immobilised, IgG 50 µg/ml. Here is the method: as §2

The next assay has as its target Chicken IgG (chicken). Briefly: SPR, IgG-Fc-16 immobilised, IgG 50 µg/ml. As for the experimental part:
as §2

The target of a further assay is Rat IgG2b (rat, UniProt P20761 1-333). Briefly: SPR, IgG-Fc-16 immobilised, IgG 50 µg/ml. As for the experimental part:
as §2

Assay [8] concerns the target T5, Human IgG1. The assay is described as follows: SPR, IgG-Fc-16 immobilised, IgG 50 µg/ml. Here is the method: as §2
Another assay has as its target Rat IgG2c (rat, UniProt P20762 1-329). Briefly: SPR, IgG-Fc-16 immobilised, IgG 50 µg/ml. As for the experimental part:
as §2

Where only a bound is given, the exact number is not on record here.

T2 sequence (P01859 other isoform, or with tags, fused parts or gaps): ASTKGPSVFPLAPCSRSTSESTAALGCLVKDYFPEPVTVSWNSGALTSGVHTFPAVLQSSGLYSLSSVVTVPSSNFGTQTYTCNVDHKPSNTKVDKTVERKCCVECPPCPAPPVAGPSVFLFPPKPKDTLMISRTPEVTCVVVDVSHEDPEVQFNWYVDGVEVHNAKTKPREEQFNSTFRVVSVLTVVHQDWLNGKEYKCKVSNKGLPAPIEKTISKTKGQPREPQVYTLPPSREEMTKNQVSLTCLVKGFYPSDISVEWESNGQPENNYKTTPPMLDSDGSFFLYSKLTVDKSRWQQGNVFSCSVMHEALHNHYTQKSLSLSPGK
T3 sequence (P01860 other isoform, or with tags, fused parts or gaps): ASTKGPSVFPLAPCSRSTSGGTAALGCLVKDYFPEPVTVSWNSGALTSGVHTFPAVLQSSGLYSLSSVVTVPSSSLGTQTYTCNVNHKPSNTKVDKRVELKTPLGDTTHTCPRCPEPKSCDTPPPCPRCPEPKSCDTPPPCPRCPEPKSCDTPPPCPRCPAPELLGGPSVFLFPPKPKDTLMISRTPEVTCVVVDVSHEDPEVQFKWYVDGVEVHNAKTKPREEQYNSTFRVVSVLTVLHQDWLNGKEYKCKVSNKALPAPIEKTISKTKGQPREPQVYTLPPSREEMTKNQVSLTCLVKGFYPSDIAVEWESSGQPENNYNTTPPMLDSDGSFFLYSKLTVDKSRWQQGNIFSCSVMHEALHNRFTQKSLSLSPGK
T4 sequence (P01861 other isoform, or with tags, fused parts or gaps): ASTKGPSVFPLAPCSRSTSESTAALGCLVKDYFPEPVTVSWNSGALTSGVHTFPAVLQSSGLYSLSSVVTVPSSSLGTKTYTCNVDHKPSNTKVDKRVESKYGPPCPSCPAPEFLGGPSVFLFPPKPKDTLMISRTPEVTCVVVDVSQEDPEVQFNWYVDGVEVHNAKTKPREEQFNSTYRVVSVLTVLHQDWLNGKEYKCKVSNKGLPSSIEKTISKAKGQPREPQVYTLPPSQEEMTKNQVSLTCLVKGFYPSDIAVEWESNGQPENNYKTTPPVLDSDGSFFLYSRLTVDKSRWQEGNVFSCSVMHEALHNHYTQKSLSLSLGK
Rat IgG2a, sequence (P20760 whole entry): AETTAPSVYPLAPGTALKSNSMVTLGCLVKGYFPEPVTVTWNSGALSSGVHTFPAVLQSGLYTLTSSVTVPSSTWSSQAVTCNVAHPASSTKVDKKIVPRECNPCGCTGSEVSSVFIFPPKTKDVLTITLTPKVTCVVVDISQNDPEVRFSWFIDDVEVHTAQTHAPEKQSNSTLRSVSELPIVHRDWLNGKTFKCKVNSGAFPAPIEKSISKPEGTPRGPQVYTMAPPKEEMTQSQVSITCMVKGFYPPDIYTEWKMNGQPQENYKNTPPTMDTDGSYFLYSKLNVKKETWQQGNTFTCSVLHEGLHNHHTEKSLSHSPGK
Mouse IgG2a, sequence (P01863 whole entry): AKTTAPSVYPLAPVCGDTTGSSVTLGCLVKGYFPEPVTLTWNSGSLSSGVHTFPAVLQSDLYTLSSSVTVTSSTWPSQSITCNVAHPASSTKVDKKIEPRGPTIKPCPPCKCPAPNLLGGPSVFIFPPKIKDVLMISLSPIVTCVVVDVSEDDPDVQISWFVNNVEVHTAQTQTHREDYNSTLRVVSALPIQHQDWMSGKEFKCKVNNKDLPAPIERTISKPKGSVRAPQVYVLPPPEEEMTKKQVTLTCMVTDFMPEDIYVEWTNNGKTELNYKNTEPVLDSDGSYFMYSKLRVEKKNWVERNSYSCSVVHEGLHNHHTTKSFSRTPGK
Rat IgG2b, sequence (P20761 whole entry): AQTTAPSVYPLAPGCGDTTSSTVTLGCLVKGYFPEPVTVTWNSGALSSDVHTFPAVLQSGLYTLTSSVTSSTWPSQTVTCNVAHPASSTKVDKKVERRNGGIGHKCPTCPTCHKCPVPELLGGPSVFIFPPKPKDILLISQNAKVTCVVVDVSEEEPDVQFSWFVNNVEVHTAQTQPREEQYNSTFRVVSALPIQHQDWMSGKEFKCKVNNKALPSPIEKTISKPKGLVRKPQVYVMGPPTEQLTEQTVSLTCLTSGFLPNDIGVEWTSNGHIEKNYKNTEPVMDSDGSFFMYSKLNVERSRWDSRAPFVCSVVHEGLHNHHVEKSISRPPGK
Rat IgG2c, sequence (P20762 whole entry): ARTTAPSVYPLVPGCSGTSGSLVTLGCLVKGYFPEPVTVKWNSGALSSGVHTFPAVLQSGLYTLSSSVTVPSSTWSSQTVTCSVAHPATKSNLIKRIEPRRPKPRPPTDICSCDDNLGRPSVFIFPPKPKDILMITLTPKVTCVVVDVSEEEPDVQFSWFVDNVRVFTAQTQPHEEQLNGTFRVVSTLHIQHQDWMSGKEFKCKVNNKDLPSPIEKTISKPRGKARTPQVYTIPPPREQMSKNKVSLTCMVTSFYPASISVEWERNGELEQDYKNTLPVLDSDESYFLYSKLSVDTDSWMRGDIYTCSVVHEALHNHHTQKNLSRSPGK

B1: IgG-Fc-10 (VHH)
VHH: QVQLQESGGGLVQAGDSLRISCRASGLTVNDLYMGWFRQAPGKEREFVGRVTPGDNTDYTYYVDSVKGRFTISRDSAKNTVYLQMNSLKLEDTAVYLCAGRRFGSSEWDYWGQGTQVTVSS
The molecule B1 had a Ka with Human IgG, Fc fragment of at least 4e+09 M⁻¹.

B2: IgG-Fc-16 (VHH)
VHH: QVQLQESGGGLVQAGGSLRLSCAASGRAVGNYIIGWFRQAPGKEREFVATTTRDGGSTFYADSVKGRFTISRDNAKNTVNLQMNSLEPEDTAVYYCAAKSWSVPLRPTSADFDSWGQGTQVTVSS
Take B2: the Ka with Human IgG2 [1] is 6.17e+07 M⁻¹; with Human IgG3 [2], 4.69e+07 M⁻¹; in the assay with Human IgG4 [3], 5.89e+08 M⁻¹; in the assay with Human IgG1 [4] it was 1.47e+08 M⁻¹. The Kd is 16.2 nM with Human IgG2 [1], 21.3 nM with Human IgG3 [2], 1.7 nM with Human IgG4 [3] and 6.81 nM with Human IgG1 [4]. The koff amounted to 0.000355 s⁻¹ in the assay with Human IgG2 [1], 0.000849 s⁻¹ with Human IgG3 [2], 0.000107 s⁻¹ with Human IgG4 [3] and 0.000211 s⁻¹ with Human IgG1 [4]. Also, the kon was found to be 21900 M⁻¹ s⁻¹ with Human IgG2 [1], 39800 M⁻¹ s⁻¹ with Human IgG3 [2], 62900 M⁻¹ s⁻¹ with Human IgG4 [3] and 31000 M⁻¹ s⁻¹ in the assay with Human IgG1 [4]. For the same molecule, the “Binding signal (RU)” value with Human IgG2 [5] worked out at 795 RU; with Mouse IgG 1 it was 1610 RU; with Human IgG3 [6], 499 RU; with Rat IgG2a, 444 RU; with Human IgG4 [7], 710 RU; in the assay with Mouse IgG2a, 427 RU. For the same molecule, the “Binding signal (RU)” value was 431 RU with Rat IgG1a; 577 RU with Guinea IgG; -3.1 RU in the assay with Chicken IgG; 512 RU with Rat IgG2b; 1570 RU with Human IgG1 [8]; 2130 RU with Rat IgG2c.

B3: IgG-Fc-01 (VHH)
VHH: QVQLQESGGGLVQPGGSLRLSCAASGGTSIRIGSINALAWYRQALGNQRELVAAVTEGGSTNYADFVKGRFTISRDNAQNMMYLQMNSLKPEDTAVYYCNADKVLYSRGGYYSVANDLWGQGTQVTVSS
notes: also called IgG-Fc-1
Regarding B3, in the assay with Human IgG2 [1], the Ka is 5.76e+08 M⁻¹, binding was put at a Kd of 1.73 nM, the koff was 0.000212 s⁻¹ and the kon amounted to 122000 M⁻¹ s⁻¹. In the assay with Human IgG3 [2], this molecule displayed a Ka of 2.09e+07 M⁻¹, a Kd of 47.8 nM, a koff of 0.000272 s⁻¹ and a kon of 5690 M⁻¹ s⁻¹. For the same molecule, in the assay with Human IgG4 [3], the Ka was 3.32e+09 M⁻¹, the Kd amounted to 0.302 nM, the koff stood at 5.91e-05 s⁻¹ and the kon worked out at 196000 M⁻¹ s⁻¹. In the assay with Human IgG1 [4], this molecule gave a Ka of 1.74e+09 M⁻¹, a Kd of 0.575 nM, a koff of 0.000208 s⁻¹ and a kon of 361000 M⁻¹ s⁻¹.

In general, Kd refers to the concentration at which binding is half-saturated. High values mean a looser complex, low ones a tighter complex. In general, koff refers to a measure of how fast the partners let go of each other. A high value points to a short-lived complex. The kon is the rate constant with which the complex forms. Lower therefore signals slower complex formation.

(Values after patent US20190177434A1 (published 2019).)
